Data as given in patent publication US20240238445A1, “INHIBITORS AND USES THEREOF” (NEURACLE SCIENCE CO., LTD., priority 2021, published 2024).

B1: LRRC4B (453-576): LRRC4B ectodomain fragment, amino acids 453-576 of SEQ ID NO: 2; FLAG-tagged or hFc-fused (protein)
chain: VSAVDPVAAGGTGSGGGGPGGSGGVGGGSGGYTYFTTVTVETLETQPGEEALQPRGTEKEPPGPTTDGVWGGGRPGDAAGPASSSTTAPAPRSSRPTEKAFTVPITDVTENALKDLDDVMKTTK
modifications: FLAG tag or human Fc
notes: FLAG-tagged or hFc-fused

Key:
[1] = molecular target: binding of FAM19A5 protein to full-length ectodomain of LRRC4C protein (Homo sapiens, UniProt Q7Z5A7); assay: Competitive inhibition assay, plate coated with full-length ectodomain of LRRC4C; conditions: FAM19A5 5 ng/mL; 100 nM/well coat
binding of FAM19A5 protein to full-length ectodomain of LRRC4C protein, sequence (Q7Z5A7 44-132): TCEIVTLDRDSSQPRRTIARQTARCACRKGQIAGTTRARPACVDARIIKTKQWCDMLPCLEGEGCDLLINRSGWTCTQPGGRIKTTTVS
Description: (§1) As described in Example 3, there appeared to be much similarity in the binding domains of the different members of the LRRC4 family. […] Then, recombinant FAM19A5 protein (5 ng/mL) was added in combination with one of the following: (i) LRRC4B (484-576) protein fragment, (ii) LRRC4B (453-576, AA) protein fragment, and (iii) synthetic FB-20 peptide. The plates were incubated at 37° C., and then, the amount of FAM19A5 protein bound to the coated LRRC4, LRRC4B, or LRRC4C proteins was measured using anti-FAM19A5 (1-65) antibody.

[2] = molecular target: binding of FAM19A5 protein to full-length ectodomain of LRRC4 protein (Homo sapiens, UniProt Q7Z5A7); assay: Competitive inhibition assay, plate coated with full-length ectodomain of LRRC4; conditions: FAM19A5 5 ng/mL; 100 nM/well coat
binding of FAM19A5 protein to full-length ectodomain of LRRC4 protein, sequence (Q7Z5A7 44-132): as above
Description: as §1

[3] = tested on: mouse primary hippocampal neurons; assay: Synaptic marker (SYP, PSD95) expression in mouse primary hippocampal neurons; type: cell-based; conditions: 6 or 60 nM
Description: Next, it is generally known that neurites that outgrow from other neurites are capable of differentiating into axons, forming presynapses. Other neurites remain minor neurites and differentiate into dendrites, forming postsynapses. Therefore, whether the LRRC4B (453-576) protein fragment can also affect pre- and post-synaptic formation was also assessed. Briefly, mouse primary hippocampal neurons were cultured in vitro with the LRRC4B (453-576) protein fragment (6 or 60 nM). Control cells were treated with either DMSO (“Veh”) or the mutant LRRC4B (453-576) protein fragment which is not capable of binding to FAM19A5 protein (comprises alanine substitutions at positions 488 and 489). Then, at days 3 and 6 post initial culture, the expression level of synaptophysin (SYP; a presynaptic marker) was assessed. At day 7 post initial culture, the expression level of postsynaptic density 95 (PSD95; a postsynaptic marker) was assessed.
Primary hippocampal neurons were prepared from postnatal pups (postnatal day 1) of C57BL/6 (Nara Biotech, Seoul, Korea) as previously described by Beaudoin et al., Nature protocols 7(9): 1741-1754 (2012), which is incorporated herein by reference in its entirety. Briefly, cortices were dissected in Hank's buffered salt solution (HBSS) (Invitrogen, Carlsbad, CA, USA) and digested with 2.5% trypsin for 15 min at 37° C. […]

[4] = tested on: APP/PS1 mice (Alzheimer mouse model); assay: Synaptic formation in hippocampal CA1 and CA3 of APP/PS1 mice; type: in vivo; conditions: 30 mg/kg intravenous, four consecutive weeks, compared to mutant LRRC4B protein fragment
Description: FIGS. 16A, 16B, and 16C show the ability of LRRC4B peptide fragment (amino acid residues 453-576 of SEQ ID NO: 2; “WT”) (i.e., SEQ ID NO: 7) to promote synaptic formation in the hippocampal CA1 of APP/PS1 mice. As further described in Example 8, APP/PS1 mice were treated with the LRRC4B peptide fragment (30 mg/kg; intravenous administration) for four consecutive weeks, and then synaptic formation was assessed by fluorescence microscopy using antibodies against SYP and PSD95. Control animals received no treatment (“Cont”) or the mutant LRRC4B peptide fragment […] (i.e., comprising alanine substitutions at positions 488 and 489 of SEQ ID NO: 2; SEQ ID NO: 16). FIG. 16A provides representative fluorescent photomicrographs. FIGS. 16B and 16C show the SYP and PSD95 intensity, respectively.
FIGS. 17A, 17B, and 17C show the ability of LRRC4B peptide fragment (amino acid residues 453-576 of SEQ ID NO: 2; “WT”; SEQ ID NO: 7) to promote synaptic formation in the hippocampal CA3 of APP/PS1 mice. The animals were treated and analyzed as described in FIGS. 16A-16C. FIG. 17A provides representative fluorescent photomicrographs. FIGS. 17B and 17C show the SYP and PSD95 intensity, respectively.
Additionally, to confirm the above effect on neurite outgrowth in vivo, APP/PS1 mice (Alzheimer mouse model) were used. […] Hong et al., Science 352(6286): 712-716 (May 2016). […]

Molecule	inhibition of FAM19A5 binding to coated LRRC4C protein (in words) [1]	inhibition of FAM19A5 binding to coated LRRC4 protein (in words) [2]	SYP and PSD95 expression [3]	number of puncta colabeled with SYP and PSD95 [3]	SYP and PSD95 immunoreactivities in CA1 and CA3 [4]
GYTYFTTVTVETLETQPGEE [FB-20]	able to inhibit FAM19A5 protein from binding	able to inhibit FAM19A5 protein from binding			
B1			increased both SYP and PSD95 expression	increased number of puncta that were colabeled with SYP and PSD95	increased SYP and PSD95 immunoreactivities in CA1 and CA3
